This note sets out measurements from US7241873B2, “Recombinant anti-osteopontin antibody and use thereof” (Juridical Foundation the Chemo-sero-therapeutic Research …, priority 2001, dated 2007).

The test system of test [1] is adhesion of human fibroblast TIG-7 to CHO/OPN-a. Kind of test: Inhibition of TIG-7 cell adhesion to OPN. In kind it is cell-based. The conditions noted are these: peptide 100 μg/ml, FIG. 1A. The method, then: (§1) It was examined by the following method as to whether or not the murine monoclonal antibodies inhibited cell adhesion to OPN. First, a 96-well plate was precoated with various concentrations of the CHO/OPN-a at 4° C. overnight, which was then treated with 0.5% BSA in PBS under conditions of 37° C. for 10 minutes, so as to block non-specific adhesion. A human fibroblast TIG-7 or SW480 cell transformed with the cDNA of an integrin subunit α9 (referred to as “α9-transformed SW480 cell” hereinafter) was suspended in D-MEM containing 0.25% BSA; 200 μl of the resulting cell suspension (at a cell concentration of 5×10^4 cells/well) was injected in a 96-well plate precoated with the CHO/OPN-a or nOPN, in the presence or absence of various concentrations of the monoclonal antibodies or synthetic peptides, for incubation at 37° C. for one hour.
(§2) The culture medium was discarded from the plate, and all the wells were rinsed twice with D-MEM containing 0.25% BSA. The adherent cells were fixed and stained with 0.5% crystal violet in 20% methanol for 30 minutes.
All the wells were rinsed three times with water, and the adherent cells were then solubilized into 20% acetic acid. The resulting supernatant recovered from each well was analyzed with an immunoreader, to measure the absorbance at 590 nm to determine the relative count of the cells adhering to the well. All the assays were done in a triplicate fashion, and at least three independent experiments were performed. The values shown represent mean at three independent experiments.

Test [2] concerns adhesion of murine NIH 3T3 cell to mOPN/de-GST. Briefly: Inhibition of NIH 3T3 cell adhesion to murine OPN. The test is classed as cell-based, mouse. As to conditions: peptide 100 μg/mL, FIG. 15. An excerpt:
It was examined by the method described in the reference (S. Kon et al., (2002): J. Cell. Biochem., 84(2), 420–432) as to whether or not the M5 antibody might inhibit cell adhesion to OPN. As the OPN, the full-length murine OPN was used, from which the GST segment had preliminarily been removed with PreScission protease (Amersham Pharmacia Biotech, Tokyo, Japan) (referred to as “mOPN/de-GST” hereinafter) was used. As the cell, murine NIH 3T3 cell was used.

Test [3] concerns adhesion of α9-transformed SW480 cell to nOPN. Kind of test: Adhesion of α9-transformed SW480 cell to nOPN. In kind it is cell-based, human. As to conditions: 3 μg/ml nOPN, combination of 200 μM GRGDSP peptide and anti-α9β1 antibody Y9A2, FIG. 2A. The method, then: as §1, §2
All the wells were rinsed three times with water, and the adherent cells were then solubilized into 20% acetic acid. The resulting supernatant recovered from each well was analyzed with an immunoreader, to measure the absorbance at 590 nm to determine the relative count of the cells adhering to the well. […]

Test [4] deals with adhesion of α9-transformed SW480 cell to vitronectin. Kind of test: Adhesion of α9-transformed SW480 cell to vitronectin. In kind it is cell-based, human. The conditions noted are these: 1 μg/ml vitronectin, 200 μM peptide, FIG. 2A.
The subject of test [5] is mouse collagen arthritis model. Briefly: Mouse collagen arthritis model (arthritogenic antibody cocktail/LPS). In kind it is in vivo. As to conditions: text summary of Tables 6 to 9. The method, then: For arthritis induction, an arthritogenic antibody cocktail (under the trade name of a cocktail for arthritis, Arthrogen-CIA® mAb, Arthritogenic mAb cocktail; manufactured by Iwai Chemical Pharmaceutical Co., Ltd.) recognizing four epitopes specific to collagen was used. To a mouse was intravenously administered the arthritogenic cocktail; 3 days later, LPS (100 μg) was intraperitoneally administered to thereby elicit arthritis. Arthritis was observed on day 3 after LPS dosing, which reached maximum on day 6.
Immediately before LPS dosing and 3 days later, the M5 antibody was intravenously administered at a dose of 40 μg, 150 μg or 400 μg. As the control group, a rabbit IgG-dosed group (at a dose of 400 μg) was arranged. Additionally, the anti-mouse TNF-α antibody was intravenously administered at a dose of 200 μg/mouse immediately before LPS administration and 3 days later. As the control group, a rat IgG-dosed group (at a dose of 200 μg) was arranged. Further, MTX was orally given (at a dose of 3.2 mg/kg) once daily on the very day of LPS dosing and thereafter. Then, MTX dissolved in 5 ml of 0.5% methyl cellulose solution was used. For the control group, 5 ml of 0.5% methyl cellulose solution was arranged.
Concerning four items, namely arthritis score, leg edema, body weight change and feed intake, assessment was done per each group of five animals.

The target of test [6] is BSA-crosslinked osteopontin peptide (BSA-CVDTYDGRGDSVVYGLRS) (Homo sapiens, UniProt P10451). Briefly: ELISA binding to osteopontin peptide. An excerpt: Based on the concentrations of the humanized 2K1 antibody and the chimera 2K1 antibody as determined in Example 13, the binding activities of the humanized 2K1 antibody and the chimera 2K1 antibody with osteopontin peptide (CVDTYDGRGDSVVYGLRS) (SEQ ID NO: 1) were compared with reference to the ELISA of Kon et al. (Journal of Cellular […]: 420–432 (2002)).
Dilution series of the humanized 2K1 antibody and the chimera 2K1 antibody reacted on a microtiter plate with BSA-crosslinked osteopontin peptide (BSA-CVDTYDGRGDSVVYGLRS)(SEQ ID NO: 1) immobilized thereon. Then, the antibodies bound to BSA-CVDTYDGRGDSVVYGLRS (SEQ ID NO: 1) reacted with protein A-HRP, and finally with TMB (Dojindo Corporate), to measure the absorbance at a wavelength of 450 nm.
Additionally, reaction on a plate with only BSA immobilized thereon as a negative control was also measured in the same manner.
As a negative control, additionally, the binding activity of the chimera 2K1 antibody to BSA (open circle) and the binding activity of the humanized 2K1 antibody to BSA (open square) are also shown.

Test [7] deals with partial peptide GRGDSVVYGLR of the human osteopontin (Homo sapiens, UniProt P10451). Kind of test: KD assay on BIACORE-2000. The test is classed as binding. As to conditions: compared with murine 2K1 antibody. The method, then:
The KD value of the chimera 2K1 antibody was assayed in the following manner. First, a partial peptide GRGDSVVYGLR (residues 7–17 of SEQ ID NO: 1) of the human osteopontin was biotinylated with a biotinylation kit (Dojindo Corporate). A sensor chip SA was set on BIACORE-2000, to bind 23 RU of a ligand (Bin-GRGDSVVYGLR)(residues 7–17 of SEQ ID NO: 1). […] The data of these sensor grams were analyzed by global fitting at 1:1 (Langmuir) binding by a BIACORE analysis software BIA Evaluation Version 3.0. FIG. 6a is a sensor gram at various concentrations of the murine 2K1 antibody. FIG. 6b is a sensor gram at various concentrations of the chimera 2K1 antibody.

The test system of test [8] is human peripheral monocyte migration toward thrombin-cleaved OPN. Briefly: Migration of TNF-α-activated human peripheral monocyte toward thrombin-cleaved OPN (chimera 2K1). The test is classed as cell-based. The conditions noted are these: for Mean migrating cell counts per 1 mm^3 (monocyte): thrombin-cleaved OPN 10 μg/mL. The method, then: First, the blood drawn out from a normal subject with heparin was diluted 2-fold with an RPMI 1640 culture medium. The diluted blood was overlaid on the Ficoll-Paque (Pharmacia), which was then centrifuged at 400×g at ambient temperature for 30 minutes. A white layer observed in the interface between the blood plasma and Ficoll-Paque was recovered and used as a monocyte. The monocyte thus obtained was overnight cultured with human TNF-α (20 ng/mL). The resulting activated monocyte was used for a migration experiment.
The migration experiment was done, using a 48-well microchemotaxis chamber (Neuro Probe Inc.). Human OPN reacted with bovine thrombin (Sigma) at 37° C. for 2 hours, for cleavage. After various concentrations of the 2K1 chimera antibody were added to the resulting human […] and left to stand at 37° C. for 15 minutes, the resulting mixture was added to the lower chamber (the final human OPN concentration was 10 μg/mL). Placing a polycarbonate filter (pore size of 5 μm) thereon, 50 μl of a cell suspension (2×10^6 cells/mL) was added to the upper chamber.
After culturing in the presence of 5% CO2 at 37° C. for 2 hours, the polycarbonate filter was removed, while […] with Diff-Quick (Baxter). The cells on the surface of the […] filter were counted at a magnification×40. The results are shown as mean cell count (cells/mm^3)±SD in 6 wells.

As to GRGDSP [reference compound], in test [1], the “inhibition of TIG-7 adhesion to OPN” value is “apparently inhibited”. The “inhibition of NIH 3T3 adhesion to mOPN/de-GST” value in test [2] is listed as “apparently inhibited”. For the same molecule, in test [3], the “inhibition of adhesion of α9-transformed SW480 cell to nOPN” value is reported as “inhibited”. Further, the “inhibition of adhesion between vitronectin and α9-transformed SW480 cell” value in test [4] was “inhibited”.

Consider `CN(Cc1cnc2nc(N)nc(N)c2n1)c1ccc(C(=O)N[C@@H](CCC(=O)O)C(=O)O)cc1` [MTX], for which the “effect on arthritis score, onset of arthritis and leg edema (therapeutic effect)” value in test [5] is listed as “almost no pharmaceutical efficacy”.

B1: chimera 2K1 antibody: VH and VL of murine 2K1 antibody (SEQ ID NO: 19, 20) conjugated to human Igγ1 and human Igκ (antibody, V domains shown)
VH: QVQLQQSGAELVRPGASVKLSCKALGYTFTDYEMHWVKQTPVHGLEWIGAIHPGRGGTAYNQKFKGKATLTADKSSSTAYMELSSLTSEDSAVYYCTRITGYFDVWGAGTTVTVSS
VL: DVLMTQTPLSLPVSLGDQASISCRSSQSIVHSNGNTYLEWYLQKPGQSPKLLIYKVSNRFSGVPDRFSGSGSGTDFTLKISRVEAEDLGVYYCFQGSHVPLTFGAGTKLELKR
modifications: human IgG1 and kappa constant regions; Mouse
For the molecule B1, in test [6] (ELISA, absorbance 450 nm, FIG. 13), the “binding activity to BSA-CVDTYDGRGDSVVYGLRS” value is reported as “had binding activities”. Moreover, the “binding activity to BSA (negative control plate)” value in test [6] (ELISA, plate with only BSA immobilized) is given as “not to BSA”. In addition, in test [6] (humanized versus chimera 2K1 antibody), the “comparison of binding activities of both antibodies to BSA-CVDTYDGRGDSVVYGLRS” value is “at the same level”. The “reduction of the affinity due to the chimera preparation” value in test [7] is “No reduction”. Further, the “inhibition of migration of TNF-α-activated human peripheral neutrophil and monocyte toward thrombin-cleavage-type OPN” value in test [8] (summary of Table 3) is “inhibited”. In addition, the “Mean migrating cell counts per 1 mm^3 (monocyte)” value in test [8] (antibody 12.5 μ/mL) was 1010.0 ± 59.1 counts per 1 mm^3; in test [8] (antibody 25 μ/mL), 1153.3 ± 96.2 counts per 1 mm^3; in test [8] (antibody 50 μ/mL) it was 895.0 ± 78.0 counts per 1 mm^3; in test [8] (antibody 100 μ/mL), 821.7 ± 50.2 counts per 1 mm^3; in test [8] (antibody 250 μ/mL) it was 865.0 ± 64.9 counts per 1 mm^3; in test [8] (antibody 500 μ/mL) it was 830.0 ± 44.1 counts per 1 mm^3.
